# Source: PMC4797294
# T1: pVIc-TMR (UniProt P03274 240-250)
# T1 chain: GVQSLKRRRCF
# B1: 30 bp dsDNA (dsDNA)
# DNA 1: GACGACTAGGACGACGACGAGGATGACGAC
# DNA 2: GTCGTCATCCTCGTCGTCGTCCTAGTCGTC
# Target: T1, pVIc-TMR
# Experiment: fluorescence polarization
binder,measurement,value
B1,Kd,262 ± 88 nM
